Measurements taken from PMC8430805.

Tests used:
[1] = molecular target: LysB endolysin (putative N-acetylmuramoyl-L-alanine amidase) from the prophage of Clostridium botuli (Clostridium botulinum E3 strain Alaska E43 (prophage)); experiment: SEC
[2] = molecular target: LysB endolysin (putative N-acetylmuramoyl-L-alanine amidase) from the prophage of Clostridium botuli (Clostridium botulinum E3 strain Alaska E43 (prophage)); experiment: AUC

“LysB endolysin (putative N-acetylmuramoyl-L-alanine amidase) from the prophage of Clostridium botuli (enzyme)” showed a stoichiometry N [1] of 2 and a stoichiometry N [2] of 2.
